From paper PMC11187117, “Structure of the endosomal CORVET tethering complex” (Nature Communications, 2024)

T1: Vps8 with 3xFLAG tag (CORVET subunit) (yeast, UniProt P39702 1-1274)
T1 construct: UniProt P39702 printed for its AlphaFold model
T1 sequence: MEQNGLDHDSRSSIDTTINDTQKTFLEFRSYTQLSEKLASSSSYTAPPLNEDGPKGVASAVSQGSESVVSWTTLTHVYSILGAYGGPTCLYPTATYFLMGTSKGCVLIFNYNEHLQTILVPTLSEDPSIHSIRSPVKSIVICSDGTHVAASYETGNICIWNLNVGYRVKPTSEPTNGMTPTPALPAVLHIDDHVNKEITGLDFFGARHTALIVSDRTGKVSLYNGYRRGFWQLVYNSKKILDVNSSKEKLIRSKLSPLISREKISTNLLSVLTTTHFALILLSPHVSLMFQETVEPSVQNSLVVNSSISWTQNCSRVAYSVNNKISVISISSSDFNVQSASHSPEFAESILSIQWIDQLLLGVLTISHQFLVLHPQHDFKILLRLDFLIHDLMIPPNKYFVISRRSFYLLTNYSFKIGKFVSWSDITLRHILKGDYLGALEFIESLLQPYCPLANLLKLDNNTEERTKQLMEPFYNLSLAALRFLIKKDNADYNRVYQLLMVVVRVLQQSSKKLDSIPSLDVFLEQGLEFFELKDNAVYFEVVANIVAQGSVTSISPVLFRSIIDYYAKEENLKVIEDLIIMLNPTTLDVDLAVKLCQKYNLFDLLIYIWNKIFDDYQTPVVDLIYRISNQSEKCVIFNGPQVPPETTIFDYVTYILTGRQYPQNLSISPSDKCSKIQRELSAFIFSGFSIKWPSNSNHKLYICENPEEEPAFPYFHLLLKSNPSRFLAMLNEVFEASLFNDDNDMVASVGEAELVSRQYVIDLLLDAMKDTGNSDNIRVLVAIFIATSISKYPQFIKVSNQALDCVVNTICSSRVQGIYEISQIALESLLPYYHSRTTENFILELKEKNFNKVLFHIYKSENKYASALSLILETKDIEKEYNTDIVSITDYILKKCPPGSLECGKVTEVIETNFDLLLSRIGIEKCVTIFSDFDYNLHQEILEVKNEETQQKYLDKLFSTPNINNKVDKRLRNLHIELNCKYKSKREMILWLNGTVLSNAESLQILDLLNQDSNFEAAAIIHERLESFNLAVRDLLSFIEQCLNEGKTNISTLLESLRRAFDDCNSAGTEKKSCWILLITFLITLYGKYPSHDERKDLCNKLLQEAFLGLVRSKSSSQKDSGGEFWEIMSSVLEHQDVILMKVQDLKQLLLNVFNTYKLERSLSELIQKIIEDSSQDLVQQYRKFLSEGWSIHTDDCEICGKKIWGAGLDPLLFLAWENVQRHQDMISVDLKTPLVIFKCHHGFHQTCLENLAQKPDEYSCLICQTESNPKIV

T2: Vps18 (CORVET and HOPS core subunit) (yeast, UniProt P27801 1-918)
T2 construct: Vps18, yeast, core subunit shared by CORVET and HOPS
T2 sequence: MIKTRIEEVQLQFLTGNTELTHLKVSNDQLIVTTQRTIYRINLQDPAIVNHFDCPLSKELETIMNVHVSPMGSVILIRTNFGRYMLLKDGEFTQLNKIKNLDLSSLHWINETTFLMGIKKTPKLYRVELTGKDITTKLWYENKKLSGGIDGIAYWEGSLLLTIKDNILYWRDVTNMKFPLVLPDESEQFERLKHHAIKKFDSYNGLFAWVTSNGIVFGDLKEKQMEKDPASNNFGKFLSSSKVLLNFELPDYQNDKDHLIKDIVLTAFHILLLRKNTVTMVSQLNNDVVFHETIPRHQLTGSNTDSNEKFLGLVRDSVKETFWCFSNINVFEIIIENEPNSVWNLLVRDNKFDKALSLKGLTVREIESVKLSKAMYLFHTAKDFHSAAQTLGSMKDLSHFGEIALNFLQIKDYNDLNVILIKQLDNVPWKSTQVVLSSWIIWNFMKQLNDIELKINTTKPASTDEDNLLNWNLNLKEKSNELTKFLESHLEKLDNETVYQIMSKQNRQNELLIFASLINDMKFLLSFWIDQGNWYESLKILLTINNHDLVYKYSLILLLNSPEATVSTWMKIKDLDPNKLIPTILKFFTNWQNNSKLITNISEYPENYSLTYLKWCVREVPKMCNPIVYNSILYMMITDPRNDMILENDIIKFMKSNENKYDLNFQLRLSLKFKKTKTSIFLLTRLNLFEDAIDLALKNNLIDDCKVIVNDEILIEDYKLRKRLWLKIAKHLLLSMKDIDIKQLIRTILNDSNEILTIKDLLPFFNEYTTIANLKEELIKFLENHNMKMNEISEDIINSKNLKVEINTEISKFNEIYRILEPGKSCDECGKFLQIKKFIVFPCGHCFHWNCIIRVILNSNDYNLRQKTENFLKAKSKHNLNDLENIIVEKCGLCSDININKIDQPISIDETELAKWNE

B1: Vps11 (CORVET and HOPS core subunit) (natural protein, yeast)
chain: MSLSSWRQFQLFENIPIRDPNFGGDSLLYSDPTLCAATIVDPQTLIIAVNSNIIKVVKLNQSQVIHEFQSFPHDFQITFLKVINGEFLVALAESIGKPSLIRVYKLEKLPNREQLYHSQVELKNGNNTYPISVVSISNDLSCIVVGFINGKIILIRGDISRDRGSQQRIIYEDPSKEPITALFLNNDATACFAATTSRILLFNTTGRNRGRPSLVLNSKNGLDLNCGSFNPATNEFICCLSNFIEFFSSSGKKHQFAFDLSLRKRIFCVDKDHILIVTEETGVPTTSISVNELSPTIINRIFIIDAKNKIISLNFVVSSAIIDIFSTSQSGKNITYLLTSEGVMHRITPKSLENQINIIIQKELYPFALQLAKQHSLSPLDVQEIHKKYGDYLFKKGLRKEATDQYIQCLDVVETSEIISKFGVKEVPDPESMRNLADYLWSLIKNSISQRDHVTLLLIVLIKLKDVEGIDTFIQHFDRKGIWNEGVVMDDMDDVTFFYSDNDFFDLDLILELMKESDFKRLSYRLAKKYSKDSLIIVDILLNLLHNPVKAIKYIKSLPIDETLRCLVTYSKKLLEESPNETNALLIEVFTGKFKPSTFEVDLDRRDTTGDFSENIRTVFYSYKTFFNYMNSNGTSDAMSESSEASHEHEEPTYHPPKPSIVFSSFVTKPFEFVVFLEACLACYQQYEGFDEDRQVILTTLYDLYLNLAQNDVPERIDDWRSRATGVLRESNKLVYSAASNNTSKRVDNSIMLLISHMDQSSASAKDKTKIDIASFANDNPEMDLLSTFRAMTLNEEPSTCLKFLEKYGTEEPKLLQVALSYFVSNKLIFKEMGGNEVLKEKVLRPIIEGERMPLLDIIKALSRTNVAHFGLIQDIIIDHVKTEDTEIKRNEKLIESYDKELKEKNKKLKNTINSDQPLHVPLKNQTCFMCRLTLDIPVVFFKCGHIYHQHCLNEEEDTLESERKLFKCPKCLVDLETSNKLFEAQHEVVEKNDLLNFALNSEEGSRDRFKVITEFLGRGAISYSDITI
notes: Vps11, yeast, core subunit shared by CORVET and HOPS
B2: Vps16 (CORVET and HOPS subunit, SNARE-binding module) (natural protein, yeast)
chain: MKNPSFDWERLKDVFYRSRAIGELKWPTQYEEFKCALSLTVIAVEIQDFIQVYNYFGQLLGKINLQRIHEDIIKFEFDKDEKLILVTKSSIKIVKGWSPLTIESVPLQDPTIDTIWDYHNGIMLLAKSRDIYKLNGNEWELLYENKDKKYNLLTKNHWSCNDDSIILLDVDHVYQVSTSNGALLKLITDSSWHKVTISSRGFICLYNMKDNKLQIFRDPARILMEHNLDSTPDDICWCGNDTVACSFEDEIKLYGPDGLYVTFWYPFTVTNLRAEVDGLKVITTEKIYFLSRVQPQTSNIFRIGSTEPGAMLVDSFSLLEDHAPKAIEILKNFVLEKGVLDCIAAAIDEFEPKLQKMLLNAASYGKASLQYKSFDASIFVNACNTIKLLNCFRSFGIFLTVEEYRCISLKGVIDRLLKYHRYYECIQICKLANERFLLGYVFTEWAKDKIKGSPDMEDDELLDKIKSRLSVIDMTDTLQMVAVAKVAYLEGRFQLSRNLALLEKNEEARIEQLYNLDDDSIALKECIKVQNYSLTISLLIALSKKLTNSQLTKLLIIDMFNNPLYLYYMRMDKAYLYDFYRQTDRFIDLAHVLLQQGKEQQSLHSFLPQIKDLYSQVQNSEVVNNTIEQLQRQEKLWIYQESLGKRFAISFTNMTLDQTLSKLIETGQDKQVKEIVKKFKISEKKLYHLKCKTLVEAKKFDELLQFAQSRKSPIGYMPFYTYLKSRGHMDKASPYVNMIPGLSYQEKKKLYVECRGFRDAIQLAGKEKDIPGLKEIYNIIPPNEPELKALANETMSRI
notes: Vps16, yeast, subunit shared by CORVET and HOPS
B3: Vps3 (CORVET subunit) (natural protein, yeast)
chain: MVKKKTNNDKGKEVKENEGKLDIDSESSPHERENDKKKTEDDSLRATESEETNTHNANPNETVRADKFSQEESRPIEDSPHTDKNTAQESCQPSSAEDNVINTDITSLNEKTSTNDEQEKGLPLKISEGPFTISTLLDNVPSDLIYTCCEAYENHIFLGTTTGDLLHYFELERGNYMLVSQTKFDAESNSKIDKILLLPKVEGALILCDNELVLFILPEFAPRPNTTRLKGISDVVICNFSRSSKAYRIYAFHAEGVRLLKISADSLVLTKAFNFKLIDKACAHEETLMVSKLNSYELINLKSSQVIPLFRISETDEDLEPIITSFNEQSEFLVCSGGGSYDSGAMALVVNHHGDIIKGTIVLKNYPRNVIVEFPYIIAESAFQSVDIYSALPSEKSQLLQSITTSGSDLKISKSDNVFTNTNNSEEFKEKIFNKLRLEPLTHSDNKFRIERERAFVEESYEEKTSLIVYNNLGIHLLVPTPMVLRFTSCEESEIDNIEDQLKKLAKKDLTKFEHIEAKYLMSLLLFLMTLHYDHIEDEVMKKWCDFSDKVDIRILFYMFGWKVYSEIWCFHGLINIVERLKSLKLTNKCENILKMLLMMKNELKKKNKTGLLTNDFDDIMKTIDITLFKLRLEKKETITVDMFERESYDEIIREINLHDDKLPRIELLIEIYKEKGEYLKALNLLREAGDYISLVSFIEENLKKLPEDYIKERIADDLLLTLKQGDENTEECAIKKVLKILDMACINKNDFLNKIPAEETSLKVSFIEQLGVQNSNDSKFLFNYYLAKLREIINQSNIWSILGDFIKEYKDDFAYDKTDITNFIHIKLKHSLQCENFSKYYEKCENLKSENEKDDEFINFTFDEISKIDKEHILTLLFFPNELTNWVSSEELLKIYLSFNDFRSVEKYIGKQNLVAVMKQYLDISSLNYSVELVTNLLQRNFELLDDTDIQLKILETIPSVFPVQTISELLLKVLIKYQEKKEESNLRKCLLKNQISISDELSRNFDSQG
notes: UniProt P23643 printed for its AlphaFold model; N-terminal half (with the β-propeller) was removed from the deposited model; source: yeast lysate in the Vps8-ALFA pull-downs

Experiments:
Assay in all cases: cryo-EM structure; single-particle cryo-EM of the hexameric CORVET co-expressed in yeast and purified by 3xFLAG on Vps8 and SEC; about 0.8 mg/ml; consensus map 4.6 Å, local refinements to 3.8 Å
Conditions in all cases: both partners purified
[1] = molecular target: T1, Vps8 with 3xFLAG tag (CORVET subunit)
[2] = molecular target: T2, Vps18 (CORVET and HOPS core subunit)
[3] = molecular target: B1

| binding result [1] | binding result [2] | binding result [3] | Binder |
| --- | --- | --- | --- |
| binds |  |  | B1 |
| binds | binds |  | B2 |
|  |  | binds | B3 |
